In series [1] the target is ASC-mCherry (full-length human ASC, TEV protease cleavage site, mCherry, C-terminal hexa-histidine tag) (human, UniProt Q9ULZ3 1-195). Description: negative-stain EM.
Series [2] deals with the molecule itself. Description: cryo-EM structure.
Series [3] concerns the molecule itself. As to the kind of experiment: negative-stain EM.

Chain of ASC-mCherry (full-length human ASC, TEV protease cleavage site, mCherry, C-terminal hexa-histidine tag) (Q9ULZ3 whole entry): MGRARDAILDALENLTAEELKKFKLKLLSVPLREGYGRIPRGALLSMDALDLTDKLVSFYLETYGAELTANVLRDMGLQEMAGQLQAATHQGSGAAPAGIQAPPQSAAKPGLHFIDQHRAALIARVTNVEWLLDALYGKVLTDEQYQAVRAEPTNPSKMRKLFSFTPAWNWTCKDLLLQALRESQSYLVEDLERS

B1: human NLRP3^PYD (residues 3 to 110; C108S) (domain or fragment)
chain: MASTRCKLARYLEDLEDVDLKKFKMHLEDYPPQKGCIPLPRGQTEKADHVDLATLMIDFNGEEKAWAMAVWIFAAINRRDLYEKAKRDEPKWGSDNARVSNPTVISQE
As to B1, the binding result in series [1] and in series [2] was “binds” each time.

B2: NLRP3^PYD (residues 3 to 110; C108S) CAPS mutant D21H (domain or fragment)
chain: MASTRCKLARYLEDLEDVHLKKFKMHLEDYPPQKGCIPLPRGQTEKADHVDLATLMIDFNGEEKAWAMAVWIFAAINRRDLYEKAKRDEPKWGSDNARVSNPTVISQE
Take B2: the binding result in series [3] was “binds”.

B3: NLRP3^PYD (residues 3 to 110; C108S) CAPS mutant A77V (domain or fragment)
chain: MASTRCKLARYLEDLEDVDLKKFKMHLEDYPPQKGCIPLPRGQTEKADHVDLATLMIDFNGEEKAWAMAVWIFAVINRRDLYEKAKRDEPKWGSDNARVSNPTVISQE
Consider B3, for which the binding result in series [3] is on record as “binds”.

B4: NLRP3^PYD (residues 3 to 110; C108S) CAPS mutant H51R (domain or fragment)
chain: MASTRCKLARYLEDLEDVDLKKFKMHLEDYPPQKGCIPLPRGQTEKADRVDLATLMIDFNGEEKAWAMAVWIFAAINRRDLYEKAKRDEPKWGSDNARVSNPTVISQE
For B4, the binding result in series [3] is recorded as “binds”.

These data come from paper PMC9106292 (Science Advances, 2022).
